The data set is described as follows: label from the status in PepcDB records.
For the sequence “MATISAKLVKELREKTGAGMMDCKKALTETDGDIDKAIDYLREKGIAKAAKKADRIAAEGLVHVETKGNDAVIVEINSETDFVARNEGFQELVKEIANQVLDTKAETVEALMETTLPNGKSVDERIKEAISTIGEKLSVRRFAIRTKTDNDAFGAYLHMGGRIGVLTVVEGSTDEEAARDVAMHIAAINPKYVSSEQVSEEEINHEREVLKQQALNEGKPENIVEKMVEGRLRKYLQEICAVDQDFVKNPDVTVEAFLKTKGGKLVDFVRYEVGEGMEKREENFADEVKGQMK”, the protein production result is “failed”.
The value for “MATLKVSDSVPAPSDDAEQLRTAFEGWGTNEDLIISILAHRSAEQRKVIRQAYHETYGEDLLKTLDKELSNDFERAILLWTLEPGERDALLANEATKRWTSSNQVLMEVACTRTSTQLLHARQAYHARYKKSLEEDVAHHTTGDFRKLLVSLVTSYRYEGDEVNMTLAKQEAKLVHEKIKDKHYNDEDVIRILSTRSKAQINATFNRYQDDHGEEILKSLEEGDDDDKFLALLRSTIQCLTRPELYFVDVLRSAINKTGTDEGALTRIVTTRAEIDLKVIGEEYQRRNSIPLEKAITKDTRGDYEKMLVALLGEDDA” was “not failed”; that for “MATNLKSTAKLVKPIQYDEVIEVERIFADPAFIEQHRQRILASFKDAKESALYHELTHIVIKDNLFSCAMNAIVGYFEFNIDEAELKNVMEGLKRDVIQGAEDNTVQAIAEKIIKKALVFNHLQKEWKVEITDEVVKNVISLYYEKTNQSVREYLDDKQKFEGVRTALLEERMVLETINHFKFHFNLTGQLPN” was “not failed”.
The value for “MATPFWYNAALKVLKPVYRWRIKKRAENEMRYQQECRERFGPFQQPQNRHALWFHAVSVGETNAAQPLIEYYLKLGHPVLVTNTTKTGQARAKSLFLKSPYLELFQAVYLPVDQIFLLKQFFELYQPKLLALVETELWPNLIDQAQHYGVPTFLINARLSEKSAQGYARVSALSNAMLSRLTGLLAQDQSTQQRFIGLGLAREKAQVVGNIKFDIDVPLLFVEQARRLQQQWQLAGRKIMVLASTHAPEEQQLLTALKTHLMADPDLLCIVVPRHPERFDEVFQICQNLQLDTARRSLEQPIQPETQVYLADSMGELWLWYALAQTAFVGGSLNEPGGGHNILEPMALKIPVVIGPRYFNFQTIVDEFRETEAIDIVQDATQAVRQLLHYVSTPNSADQIVDHAQSILQRNKGSLARHIHVLDQYLS” was “failed”.
Then “MATPQDKLHTVRLFGTVAADGLTMLDGAPGVRFRLEDKDNTSKTVWVLYKGAVPDTFKPGVEVIIEGGLAPGEDTFKARTLMTKCPLEHHHHHH”, with “not failed”; and “MATRMTTIRRQTKMAIGQRIKYFRNRIGMTQKQLGEQLGFKGKTSDVRMAQYESEARVPKIDLVKQMSQIFDINTHALTVPDIDTHIGLMHTLFALEDMYGLKVKNVDGQPHLWLDSSISAPSSSVDEMFRAWMEQADKLENGEISKEEYDEWRYKYPELDTYQKRAKVPSQELSDYLVKELTKKEK”, with “failed”; and “MATRRLTDAFLLLRNNSIQNRQLLAEQVSSHITSSPLHSRSIAALADDRMALVSGISLDPEAAIGVTKRPPPKWVDGVDEIQYDVGRIKQKMKELASLHDKHLNRPTLDDSSEEEHAIEITTQEITQLFHRCQRAVQALPSRARACSEQEGRLLGNVVASLAQALQELSTSFRHAQSGYLKRMKNREERSQHFFDTSVPLMDDGDDNTLYHRGFTEDQLVLVEQNTLMVEEREREIRQIVQSISDLNEIFRDLGAMIVEQGTVLDRIDYNVEQSCIKTEDGLKQLHKAEQYQKKNRKMLVILILFVIIIVLIVVLVGVKSR”, with “failed”.
For the sequence “MATRTQARGAVVELLYAFESGNEEIKKIASSMLEEKKIKNNQLAFALSLFNGVLEKINEIDALIEPHLKDWDFKRLGSMEKAILRLGAYEIGFTPTQNPIIINECIELGKLYAEPNTPKFLNAILDSLSKKLTQKPLN”, the protein production entry is on record as “failed”.

Source of the values: a protein production outcome set (Wang et al. 2014).
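Note: failed if final PepcDB status was selected cloned or expressed and not failed if soluble or beyond.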
